Test results: patent publication US20200277377A1 (WUXI BIOLOGICS SHANGHAI, published 2020)

T1: full length human CTLA-4 on cells (human, UniProt P16410 36-223)
T1 construct: whole, on cells; also called CTLA-4-expressing cell line
T1 sequence (looked up): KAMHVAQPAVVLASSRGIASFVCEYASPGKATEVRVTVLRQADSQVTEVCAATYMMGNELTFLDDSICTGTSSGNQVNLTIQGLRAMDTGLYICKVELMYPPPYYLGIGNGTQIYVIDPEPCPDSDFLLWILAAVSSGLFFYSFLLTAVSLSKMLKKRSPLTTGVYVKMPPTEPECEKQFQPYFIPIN

T2: human CTLA-4.ECD.hFc (human, UniProt P16410 36-161)
T2 construct: extracellular domain; also called hCTLA-4.ECD.hFc; not shown: human Fc tag (hFc)
T2 sequence (looked up): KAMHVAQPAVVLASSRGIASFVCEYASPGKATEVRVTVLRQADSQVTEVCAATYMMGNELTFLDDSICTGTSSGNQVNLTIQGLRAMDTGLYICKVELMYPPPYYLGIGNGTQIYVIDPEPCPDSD

T3: human CTLA-4.ECD-6×His (human, UniProt P16410 36-161)
T3 construct: extracellular domain; also called WBP316.hCTLA-4.ECD-6×His; hCTLA4-His (WT)
T3 sequence: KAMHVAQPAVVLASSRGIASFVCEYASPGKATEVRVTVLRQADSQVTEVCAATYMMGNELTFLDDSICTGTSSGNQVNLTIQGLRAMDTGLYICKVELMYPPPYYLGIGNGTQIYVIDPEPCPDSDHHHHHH

B1: W3162_1.154.8-z35-uAb.IgG1K (antibody, V domains shown)
VH: QVQLVQSGAEVKKPGSSVKVSCKASGYTFTNYFMNWVRQAPGQGLEWMGRVDPEQGRADYAEKFKKRVTITADKSTSTAYMELSSLRSEDTAVYYCARRAMDNYGFAYWGQGTLVTVSS
VL: EIVLTQSPDFQSVTPKEKVTITCSANSALSYMYWYQQKPDQSPKLWVHGTSNLASGVPSRFSGSGSGTDFTLTINSLEAEDAATYYCHHWSNTQWTFGGGTKVEIK
notes: Humanized; label says IgG1K
B2: W3162-1.146.19-z12-uAb.IgG1K (antibody, V domains shown)
VH: QVQLQESGPGLVKPSETLSLTCSVTYHTITSGYDWTWIRKPPGKGMEWIGYISYSGNTNYNPSLKSRVTISRDTSKNQFFLKLSSVTAADTAVYYCASMMVPHYYVMDAWGQGTLVTVSS
VL: DIVMTQTPLSLSVTPGQPASISCRSSQSLLNSDGNTYLYWYLQKPGQSPQLLIYLVSKLGSGVPNRFSGSGSGTDFTLKISRVEAEDVGVYYCVQGTHDPWTFGGGTKVEIK
notes: Humanized; label says IgG1K

Assays:
PD-1 = PD-1 (Homo sapiens (Human), UniProt Q15116 25-170); assay: specificity ELISA on coated antigens, OD
PD-1, sequence (Q15116 25-170 limits assumed): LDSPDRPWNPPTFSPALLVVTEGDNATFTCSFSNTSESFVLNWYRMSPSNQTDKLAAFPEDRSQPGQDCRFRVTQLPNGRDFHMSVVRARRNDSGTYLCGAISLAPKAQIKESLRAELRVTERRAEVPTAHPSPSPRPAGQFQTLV
Description: (§1) In the ELISA assay, the testing antibodies, isotype control antibodies were tested binding to 10 different target antigens including Factor VIII, FGFR-ECD, PD-1, CTLA-4.ECD, VEGF, HER3.ECD, OX40.ECD, 4-1BB.ECD, CD22.ECD, CD3e.ECD. A 96-well plate was coated with the individual antigens (2 μg/mL) at 4° C. overnight. After 1 hour blocking with 2% BSA in PBS, wash plate 3 times with 300 μL PBST. Testing antibodies, as well as isotype control antibodies were diluted to 10 μg/mL in PBS containing 2% BSA, then were added to the plate and incubated at room temperature for 2 hours. After 3 times washing with 300 μL PBST, HRP-conjugated goat anti-human IgG antibody (1:5000 diluted in 2% BSA) was added to the plate and incubated at room temperature for 1 hours. Finally, the plates were washed six times with 300 μL PBST. The color was developed by dispensing 100 μL of TMB substrate for 12 min, and then stopped by 100 μL of 2M HCl.

HER3.ECD = HER3.ECD (Homo sapiens (Human), UniProt P21860 20-643); assay: specificity ELISA on coated antigens, OD
HER3.ECD, sequence (P21860 20-643 limits assumed): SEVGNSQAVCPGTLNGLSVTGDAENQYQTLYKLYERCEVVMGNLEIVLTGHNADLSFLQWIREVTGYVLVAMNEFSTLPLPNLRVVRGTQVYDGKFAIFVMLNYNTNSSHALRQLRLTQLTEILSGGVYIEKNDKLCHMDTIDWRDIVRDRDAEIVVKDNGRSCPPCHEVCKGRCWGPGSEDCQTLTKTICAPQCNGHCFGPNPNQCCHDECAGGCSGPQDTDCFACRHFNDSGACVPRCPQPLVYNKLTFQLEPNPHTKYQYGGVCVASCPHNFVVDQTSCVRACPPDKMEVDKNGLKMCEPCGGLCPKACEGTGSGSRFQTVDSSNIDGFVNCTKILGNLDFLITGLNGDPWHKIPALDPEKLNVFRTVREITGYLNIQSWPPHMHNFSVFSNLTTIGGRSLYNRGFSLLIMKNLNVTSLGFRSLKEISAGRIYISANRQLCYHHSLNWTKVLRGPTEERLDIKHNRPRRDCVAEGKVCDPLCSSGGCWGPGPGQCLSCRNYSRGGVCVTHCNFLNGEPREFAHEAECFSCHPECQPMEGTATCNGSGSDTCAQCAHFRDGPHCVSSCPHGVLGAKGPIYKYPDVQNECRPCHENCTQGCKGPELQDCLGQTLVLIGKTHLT
Description: as §1

4-1BB.ECD = 4-1BB.ECD (Homo sapiens (Human), UniProt Q07011 24-186); assay: specificity ELISA on coated antigens, OD
Description: as §1

CD3e.ECD = CD3e.ECD (Homo sapiens (Human), UniProt P07766 23-126); assay: specificity ELISA on coated antigens, OD
CD3e.ECD, sequence (P07766 23-126 limits assumed): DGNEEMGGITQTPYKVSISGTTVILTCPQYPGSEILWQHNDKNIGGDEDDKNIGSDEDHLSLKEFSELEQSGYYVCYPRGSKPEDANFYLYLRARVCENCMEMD
Description: as §1

[1] = target: T1, full length human CTLA-4 on cells; assay: flow cytometry affinity on cells expressing human CTLA-4
Description: Briefly, HEK293 cells expressing human CTLA-4 were transferred in to 96-well U-bottom plates (BD) at a density of 5×10⁴ cells/well. Testing antibodies were 1:2-fold serially diluted in PBS with 1% BSA and incubated with cells at 4° C. for 1 hour. After centrifugation at 1500 rpm for 4 min, the supernatant was discarded. The secondary antibody, FITC conjugated goat anti-human IgG Fc (3.2 FITC per IgG, Jackson Immunoresearch Lab), was added to re-suspend cells to final concentration 14 μg/ml, and incubated at 4° C. in the dark for 30 min. The cells were then washed once and re-suspended in PBS with 1% BSA, and analyzed by flow cytometery (BD). Fluorescence intensity was converted to bound molecules/cell based on the quantitative beads (Quantum™ MESF Kits, Bangs Laboratories). KD was calculated using Graphpad Prism5.
The affinity of humanized antibodies binding to cell surface CTLA-4 was measured by flow cytometry method, modified from Benedict's method [Benedict 1997 JIM].

human CTLA-4.ECD.hFc = target: T2, human CTLA-4.ECD.hFc; assay: competition ELISA, coated human CTLA-4.ECD.hFc, competitor CD80-6×His
Description: Plates were coated with human CTLA-4.ECD.hFc (0.5 μg/mL) at 4° C. for 16-20 hours. […] After washing three times with PBS containing 0.05% Tween 20, biotinylated anti-His tag antibody was 1:2000 diluted and added. The plates were incubated at room temperature for 1 hour. The bound ligands were detected by HRP conjugated streptavidin (1:20000). The color was developed by dispensing 100 μL of TMB substrate for 8 mins, and then stopped by 100 μL of 2N HCl.

human CTLA-4.ECD-6×His = target: T3, human CTLA-4.ECD-6×His; assay: SPR, antibody captured on anti-human Fc, CTLA-4.ECD-6×His as analyte, 1:1 fit
Description: (§2) Biacore T200, Series S Sensor Chip CMS, Amine Coupling Kit, and 10×HBS-EP were purchased from GE Healthcare. […] In immobilization step, the activation buffer was prepared by mixing 400 mM EDC and 100 mM NHS immediately prior to injection. The CM5 sensor chip was activated for 420 s with the activation buffer. 30 μg/mL of goat anti-human IgG Fcγ antibody in 10 mM NaAc (pH 4.5) was then injected to Fc1-Fc4 channels for 200 s at a flow rate of 5 μL/min. The chip was deactivated by 1 M ethanolamine-HCl (GE). Then the antibodies were captured on the chip. Briefly, 4 μg/mL antibodies in running buffer (HBS-EP+) was injected individually to Fc3 channel for 30 s at a flow rate of 10 μL/min. […] Regeneration buffer (10 mM Glycine pH 1.5) was injected at 10 μL/min for 30 s following every dissociation phase.
(§3) The binding kinetics of these antibodies were measured using SPR. The antibodies were captured on immobilized anti-human Fc and CTLA-4-ECD at different concentration was injected orderly. The sensorgrams for reference channel and buffer channel were subtracted from the test sensorgrams. The data was used for 1:1 binding analysis on human, monkey and mouse CTLA-4.ECD-6×His.

[2] = target: T4, cynomolgus monkey CTLA-4 ECD-6×His (cynomolgus monkey); assay: as above
T4 construct: extracellular domain; Bought; also called cynomoguls monkey CTLA-4.ECD-6×His
Description: as §2, §3

Binder	binding result (PD-1)	binding result (HER3.ECD)	binding result (4-1BB.ECD)	binding result (CD3e.ECD)	Kd [1] [nM]	IC50 (human CTLA-4.ECD.hFc) [nM]	Kd (human CTLA-4.ECD-6×His) [nM]	koff (human CTLA-4.ECD-6×His) [s⁻¹]	kon (human CTLA-4.ECD-6×His) [M⁻¹ s⁻¹]	Kd [2] [nM]	koff [2] [s⁻¹]	kon [2] [M⁻¹ s⁻¹]
B1	no binding (tested: 10 ug/mL)	no binding (tested: 10 ug/mL)	no binding (tested: 10 ug/mL)	no binding (tested: 10 ug/mL)	0.35	0.63	0.0968	0.000119	1.23e+06	0.131	0.000122	932000
B2	no binding (tested: 10 ug/mL)	no binding (tested: 10 ug/mL)	no binding (tested: 10 ug/mL)	no binding (tested: 10 ug/mL)	5	0.87	0.477	9.82e-05	206000	1.92	0.000331	173000
